This data set in a line: Standard pyruvate decarboxylase assay (coupled reaction with alcohol dehydrogenase, absorbance at 340 nm). In kind it is biochemical. To be noted: 100 ng of GDC-1 protein. As to the method: 100 ng of GDC-1 protein was tested for activity in a standard pyruvate decarboxylase assay (Gounaris et al. (1971) J. of Biol. Chem. 246:1302-1309). This assay is a coupled reaction, wherein the first step the pyruvate decarboxylase (PDC) converts pyruvate to acetaldehyde and CO2. The acetaldehyde produced in this reaction is a substrate for alcohol dehydrogenase, which converts acetaldehyde and β-NADH to ethanol and β-NAD. Thus, PDC activity is detected by virtue of utilization of β-NADH as decrease in absorbance at 340 nm in a spectrophotometer. GDC-1 as well as a control enzyme (pyruvate decarboxylase, Sigma) were tested in this assay.

B1: GDC-1: glyphosate resistance-conferring decarboxylase from fungal strain ATX6394, SEQ ID NO:19; purified as 6×His-tagged protein (protein)
chain: MASINIRVQNLEQPMDVAEYLFRRLHEIGIRSIHGLPGDYNPLALDYLPSCGLRWVGSVNELNAAYAADGYARVKQMGALITTFGVGELSAINGVAGAFSEHVPVVHIVGCPSTASQRNGMLLHHTLGNGDFNIFANMSAQISCEVAKLTNPAEIATQIDHALRVCFIRSRPVYIMLPTDMVQAKVEGARLKEPIDLSEPPNDPEKEAYVVDVVLKYLRAAKNPVILVDACAIRHRVLDEVHDLIEKTNLPVFVTPMGKGAVNEEHPTYGGVYAGDGSHPPQVKDMVESSDLILTIGALKSDFNTAGFSYRTSQLNTIDLHSDHCIVKYSTYPGVQMRGVLRQVIKQLDASEINAQPAPVVENEVAKNRDNSPVITQAFFWPRVGEFLKKNDIVITETGTANFGIWDTKFPSGVTALSQVLWGSIGWSVGACQGAVLAAADDNSDRRTILFVGDGSFQLTAQELSTMIRLKLKPIIFVICNDGFTIERFIHGMEAEYNDIANWDFKALVDVFGGSKTAKKFAVKTKDELDSLLTDPTFNAAECLQFVELYMPKEDAPRALIMTAEASARNNAKTE
modifications: 6xHis tag; Fungal isolate from soil sample
notes: purified as 6×His-tagged protein
As for B1, the Pyruvate decarboxylase activity result is listed as “showed activity as a pyruvate decarboxylase”.

These data come from patent US7504561B2, “GDC-1 genes conferring herbicide resistance” (Athenix Corporation, priority 2003, dated 2009).
